These are literature values, as cited in PMC7687380.

This data set deals with LRP1 (Homo sapiens) (UniProt Q07954).
UniProt Q07954, sequence (Q07954 20-4544): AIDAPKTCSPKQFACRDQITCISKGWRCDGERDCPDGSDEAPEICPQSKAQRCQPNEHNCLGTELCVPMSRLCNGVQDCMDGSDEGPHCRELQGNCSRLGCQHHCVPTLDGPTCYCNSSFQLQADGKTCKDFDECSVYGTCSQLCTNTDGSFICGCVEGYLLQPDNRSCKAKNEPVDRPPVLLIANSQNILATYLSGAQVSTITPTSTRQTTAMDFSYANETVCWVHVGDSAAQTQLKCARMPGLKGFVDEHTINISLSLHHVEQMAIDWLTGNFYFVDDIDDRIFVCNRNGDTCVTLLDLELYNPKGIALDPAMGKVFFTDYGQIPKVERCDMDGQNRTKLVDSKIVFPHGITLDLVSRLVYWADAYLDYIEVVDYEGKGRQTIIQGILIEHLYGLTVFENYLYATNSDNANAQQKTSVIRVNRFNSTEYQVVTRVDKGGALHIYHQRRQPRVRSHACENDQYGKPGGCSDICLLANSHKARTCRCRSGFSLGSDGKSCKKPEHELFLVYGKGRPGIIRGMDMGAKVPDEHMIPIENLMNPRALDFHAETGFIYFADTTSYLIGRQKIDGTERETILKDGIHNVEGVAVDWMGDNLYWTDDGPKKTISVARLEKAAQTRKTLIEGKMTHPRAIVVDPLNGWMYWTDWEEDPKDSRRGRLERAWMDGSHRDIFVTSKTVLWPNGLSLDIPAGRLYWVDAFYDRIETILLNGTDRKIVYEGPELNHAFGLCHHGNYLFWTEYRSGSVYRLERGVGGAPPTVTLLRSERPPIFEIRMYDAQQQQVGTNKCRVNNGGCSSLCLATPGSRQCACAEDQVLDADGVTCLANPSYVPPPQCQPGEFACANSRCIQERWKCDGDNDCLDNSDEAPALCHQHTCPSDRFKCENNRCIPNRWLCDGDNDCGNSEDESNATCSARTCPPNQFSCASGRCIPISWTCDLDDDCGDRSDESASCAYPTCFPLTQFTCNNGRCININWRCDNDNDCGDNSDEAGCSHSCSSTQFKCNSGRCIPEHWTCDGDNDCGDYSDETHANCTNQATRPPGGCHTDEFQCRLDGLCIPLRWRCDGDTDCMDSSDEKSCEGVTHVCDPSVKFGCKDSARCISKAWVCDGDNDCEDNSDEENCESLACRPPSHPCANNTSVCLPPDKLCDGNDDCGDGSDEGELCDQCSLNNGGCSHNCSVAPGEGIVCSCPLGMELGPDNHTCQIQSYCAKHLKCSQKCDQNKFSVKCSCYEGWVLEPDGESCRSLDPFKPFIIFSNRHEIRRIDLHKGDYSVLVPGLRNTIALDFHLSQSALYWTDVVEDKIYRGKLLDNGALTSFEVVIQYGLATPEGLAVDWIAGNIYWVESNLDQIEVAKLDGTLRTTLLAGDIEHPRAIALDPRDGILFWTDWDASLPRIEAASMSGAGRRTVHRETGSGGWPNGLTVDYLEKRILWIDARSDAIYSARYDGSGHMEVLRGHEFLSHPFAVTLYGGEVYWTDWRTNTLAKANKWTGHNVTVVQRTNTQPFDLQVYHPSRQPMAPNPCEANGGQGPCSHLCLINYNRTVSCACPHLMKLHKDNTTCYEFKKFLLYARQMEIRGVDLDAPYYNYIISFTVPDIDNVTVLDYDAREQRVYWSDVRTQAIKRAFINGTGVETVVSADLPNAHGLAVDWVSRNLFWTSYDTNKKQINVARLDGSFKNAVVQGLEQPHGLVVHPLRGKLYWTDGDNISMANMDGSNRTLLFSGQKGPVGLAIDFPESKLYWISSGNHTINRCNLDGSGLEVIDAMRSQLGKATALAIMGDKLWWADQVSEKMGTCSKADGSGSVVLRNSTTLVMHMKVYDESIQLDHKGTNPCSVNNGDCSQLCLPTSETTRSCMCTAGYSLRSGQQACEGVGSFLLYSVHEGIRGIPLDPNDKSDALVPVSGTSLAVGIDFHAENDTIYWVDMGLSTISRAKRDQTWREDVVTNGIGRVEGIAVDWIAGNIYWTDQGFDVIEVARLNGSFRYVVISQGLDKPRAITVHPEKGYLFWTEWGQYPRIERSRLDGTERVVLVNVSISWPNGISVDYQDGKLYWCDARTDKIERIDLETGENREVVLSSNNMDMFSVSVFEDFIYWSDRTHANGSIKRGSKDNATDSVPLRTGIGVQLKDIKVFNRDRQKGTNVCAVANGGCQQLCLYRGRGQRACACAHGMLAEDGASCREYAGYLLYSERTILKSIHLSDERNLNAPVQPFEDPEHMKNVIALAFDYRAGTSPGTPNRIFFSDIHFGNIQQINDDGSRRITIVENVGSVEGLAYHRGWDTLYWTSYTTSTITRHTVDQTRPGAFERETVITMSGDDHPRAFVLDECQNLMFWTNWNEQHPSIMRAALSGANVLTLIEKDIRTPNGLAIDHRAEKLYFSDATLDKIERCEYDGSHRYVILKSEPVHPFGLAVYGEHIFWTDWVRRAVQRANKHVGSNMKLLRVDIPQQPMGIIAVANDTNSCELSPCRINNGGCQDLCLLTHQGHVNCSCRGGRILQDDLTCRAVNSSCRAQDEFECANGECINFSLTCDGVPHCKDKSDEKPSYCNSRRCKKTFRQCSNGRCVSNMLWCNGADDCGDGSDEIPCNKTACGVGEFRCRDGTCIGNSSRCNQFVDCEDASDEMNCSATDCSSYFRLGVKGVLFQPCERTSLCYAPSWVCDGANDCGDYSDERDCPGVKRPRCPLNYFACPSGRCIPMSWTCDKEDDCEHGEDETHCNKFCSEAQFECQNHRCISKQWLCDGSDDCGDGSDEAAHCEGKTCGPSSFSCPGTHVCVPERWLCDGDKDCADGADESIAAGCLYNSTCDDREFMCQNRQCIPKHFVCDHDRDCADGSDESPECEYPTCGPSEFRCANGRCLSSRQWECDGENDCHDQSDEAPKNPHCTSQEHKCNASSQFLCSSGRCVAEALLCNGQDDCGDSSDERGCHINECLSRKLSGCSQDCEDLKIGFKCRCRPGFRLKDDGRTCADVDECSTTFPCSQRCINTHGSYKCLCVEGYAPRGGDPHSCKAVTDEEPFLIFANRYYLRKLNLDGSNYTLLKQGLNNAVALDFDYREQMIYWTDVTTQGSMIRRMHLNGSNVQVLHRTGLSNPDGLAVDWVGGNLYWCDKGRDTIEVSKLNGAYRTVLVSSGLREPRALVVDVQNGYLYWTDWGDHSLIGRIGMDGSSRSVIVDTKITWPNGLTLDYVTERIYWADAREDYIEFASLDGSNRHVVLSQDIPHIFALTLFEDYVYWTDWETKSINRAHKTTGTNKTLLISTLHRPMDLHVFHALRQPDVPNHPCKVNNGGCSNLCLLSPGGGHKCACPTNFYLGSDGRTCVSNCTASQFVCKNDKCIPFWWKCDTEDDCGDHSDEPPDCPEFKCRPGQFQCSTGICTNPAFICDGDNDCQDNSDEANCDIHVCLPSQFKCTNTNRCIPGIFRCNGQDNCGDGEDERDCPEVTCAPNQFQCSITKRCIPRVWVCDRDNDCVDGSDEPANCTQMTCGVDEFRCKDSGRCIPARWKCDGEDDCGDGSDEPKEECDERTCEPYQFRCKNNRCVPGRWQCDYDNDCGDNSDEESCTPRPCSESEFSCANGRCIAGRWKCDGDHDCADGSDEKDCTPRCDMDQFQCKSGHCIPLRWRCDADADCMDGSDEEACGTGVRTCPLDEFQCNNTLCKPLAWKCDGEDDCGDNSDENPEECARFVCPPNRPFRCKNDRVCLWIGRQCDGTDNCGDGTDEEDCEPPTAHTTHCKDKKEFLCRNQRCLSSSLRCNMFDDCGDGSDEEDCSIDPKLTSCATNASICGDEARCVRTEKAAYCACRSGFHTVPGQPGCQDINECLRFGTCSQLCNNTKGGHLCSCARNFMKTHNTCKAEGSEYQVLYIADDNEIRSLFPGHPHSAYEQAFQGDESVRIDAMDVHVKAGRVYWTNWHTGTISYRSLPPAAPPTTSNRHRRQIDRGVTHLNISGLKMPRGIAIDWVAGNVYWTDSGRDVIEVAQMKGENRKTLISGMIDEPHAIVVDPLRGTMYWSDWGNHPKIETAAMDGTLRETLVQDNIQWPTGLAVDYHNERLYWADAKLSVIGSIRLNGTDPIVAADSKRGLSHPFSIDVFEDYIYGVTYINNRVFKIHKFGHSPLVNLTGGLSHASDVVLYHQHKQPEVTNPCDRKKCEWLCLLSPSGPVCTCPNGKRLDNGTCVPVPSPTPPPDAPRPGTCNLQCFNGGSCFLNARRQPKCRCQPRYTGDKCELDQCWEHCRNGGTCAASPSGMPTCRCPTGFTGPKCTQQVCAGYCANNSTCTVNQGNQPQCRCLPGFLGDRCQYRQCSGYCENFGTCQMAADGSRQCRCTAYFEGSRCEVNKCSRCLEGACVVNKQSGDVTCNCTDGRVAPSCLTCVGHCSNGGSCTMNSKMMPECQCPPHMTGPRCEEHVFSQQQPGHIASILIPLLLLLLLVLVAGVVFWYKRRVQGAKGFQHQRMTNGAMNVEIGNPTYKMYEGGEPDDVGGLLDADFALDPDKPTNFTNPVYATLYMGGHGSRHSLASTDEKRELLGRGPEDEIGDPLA

The Kd is the equilibrium constant for the complex coming apart. RAP (from UniProt P30533): the Kd was 9 nM.
